Results published in the Immune Epitope Database (IEDB).

Assays:
HLA-B*40:01 [1] = assay: IEDB peptide-MHC binding, purified MHC/competitive/radioactivity; filed as Kd, often an IC50 or EC50 that approximates it; ≥ and ≤ were set here for values at or beyond the usual limits of such assays
HLA-B*44:03 = assay: as above
HLA-B*40:02 = assay: as above
HLA-B*18:01 [2] = assay: as above
HLA-B*45:01 = assay: as above
HLA-B*44:02 = assay: as above
HLA-B*18:01 [3] = assay: IEDB peptide-MHC binding, purified MHC/direct/fluorescence; filed as Kd, often an IC50 or EC50 that approximates it; ≥ and ≤ were set here for values at or beyond the usual limits of such assays
HLA-B*07:02 = assay: as above; conditions: source organism: Pseudomonas aeruginosa
HLA-A*02:01 = assay: as above; conditions: source organism: Pseudomonas aeruginosa
HLA-B*08:01 = assay: as above; conditions: source organism: Pseudomonas aeruginosa
HLA-B*40:01 [4] = assay: as above; conditions: source organism: Pseudomonas aeruginosa
HLA-B*15:01 [5] = assay: as above; conditions: source organism: Pseudomonas aeruginosa
HLA-A*11:01 = assay: as above; conditions: source organism: Pseudomonas aeruginosa
HLA-A*03:01 [6] = assay: as above; conditions: source organism: Pseudomonas aeruginosa
HLA-A*01:01 = assay: as above; conditions: source organism: Pseudomonas aeruginosa
HLA-A*69:01 = assay: as above; conditions: source organism: Pseudomonas aeruginosa
HLA-A*26:01 [7] = assay: as above; conditions: source organism: Pseudomonas aeruginosa
HLA-B*58:01 = assay: as above; conditions: source organism: Pseudomonas aeruginosa
HLA-A*31:01 = assay: as above; conditions: source organism: Pseudomonas aeruginosa
HLA-B*27:05 = assay: as above; conditions: source organism: Pseudomonas aeruginosa
HLA-B*39:01 = assay: IEDB peptide-MHC binding, purified MHC/competitive/fluorescence; filed as Kd, often an IC50 or EC50 that approximates it; ≥ and ≤ were set here for values at or beyond the usual limits of such assays; conditions: source organism: Pseudomonas aeruginosa PAO1
HLA-B*46:01 = assay: IEDB peptide-MHC binding, purified MHC/direct/fluorescence; filed as Kd, often an IC50 or EC50 that approximates it; ≥ and ≤ were set here for values at or beyond the usual limits of such assays; conditions: source organism: Yellow fever virus
HLA-B*15:01 [8] = assay: IEDB peptide-MHC binding, purified MHC/competitive/fluorescence; filed as Kd, often an IC50 or EC50 that approximates it; ≥ and ≤ were set here for values at or beyond the usual limits of such assays; conditions: source organism: Yersinia bercovieri ATCC 43970
HLA-A*03:01 [9] = assay: as above; conditions: source organism: Yersinia bercovieri ATCC 43970
HLA-A*26:01 [10] = assay: as above; conditions: source organism: Yersinia bercovieri ATCC 43970
[11] = source organism: Mammarenavirus lassaense
[12] = source organism: Mammarenavirus juninense
[13] = source organism: SARS coronavirus Tor2
[14] = source organism: Lymphocytic choriomeningitis virus (strain Armstrong)
[15] = source organism: Dengue virus 1 Brazil/97-11/1997

Sequence	Kd (HLA-B*40:01 [1]; [13]) [nM]	Kd (HLA-B*44:03; [13]) [nM]	Kd (HLA-B*40:02; [13]) [nM]	Kd (HLA-B*18:01 [2]; [13]) [nM]	Kd (HLA-B*45:01; [13]) [nM]	Kd (HLA-B*44:02; [13]) [nM]	also measured
HDLMKQKCL	–	–	–	–	–	–	Kd (HLA-B*40:01 [1]; [11]): ≥ 40000 nM; Kd (HLA-B*44:03; [11]): ≥ 78100 nM; Kd (HLA-B*40:02; [11]): 1570 nM; Kd (HLA-B*18:01 [2]; [11]): ≥ 77500 nM; Kd (HLA-B*45:01; [11]): 19100 nM; Kd (HLA-B*44:02; [11]): ≥ 77900 nM
HDWHLDPPF	–	–	–	–	–	–	Kd (HLA-B*40:01 [1]; [12]): ≥ 72000 nM; Kd (HLA-B*44:03; [12]): 7960 nM; Kd (HLA-B*40:02; [12]): 22.1 nM; Kd (HLA-B*18:01 [2]; [12]): 2390 nM; Kd (HLA-B*45:01; [12]): ≥ 77700 nM; Kd (HLA-B*44:02; [12]): 18500 nM
HESFDLAGLF	–	–	–	–	–	–	Kd (HLA-B*40:01 [1]; [12]): 1980 nM; Kd (HLA-B*44:03; [12]): 776 nM; Kd (HLA-B*40:02; [12]): 435 nM; Kd (HLA-B*18:01 [2]; [12]): 1140 nM; Kd (HLA-B*45:01; [12]): 1760 nM; Kd (HLA-B*44:02; [12]): 175 nM
KDCVMYASAL	≥ 60500	11900	3290	≥ 70500	≥ 70000	10700	–
KDLQRLRSL	–	–	–	–	–	–	Kd (HLA-B*40:01 [1]; [14]): 4490 nM; Kd (HLA-B*44:03; [14]): ≥ 66000 nM; Kd (HLA-B*40:02; [14]): 165 nM; Kd (HLA-B*18:01 [2]; [14]): 5860 nM; Kd (HLA-B*45:01; [14]): ≥ 43100 nM; Kd (HLA-B*44:02; [14]): ≥ 43600 nM
MEVQLIRQM	–	–	–	–	–	–	Kd (HLA-B*18:01 [3]; source organism: dengue virus type 1): 1.5 nM; Kd (HLA-B*44:03; [15]): 18.9 nM; Kd (HLA-B*44:02; [15]): 17.3 nM
QEAYEQAVA	≥ 26000	6860	1200	3870	14.9	17300	–
QELGHEDLM	5540	3710	3000	≥ 31800	2740	15400	–
REFLTRNPAW	50.2	5.83	23.5	≥ 33400	569	4.02	–
SEQGEFKLL	–	–	–	–	–	–	Kd (HLA-B*18:01 [3]; source organism: Yellow fever virus 17D): 875 nM
SEYKAAGYL	–	–	–	–	–	–	Kd (HLA-B*07:02): ≥ 20000 nM; Kd (HLA-A*02:01): ≥ 20000 nM; Kd (HLA-B*08:01): ≥ 20000 nM; Kd (HLA-B*40:01 [4]): 19.6 nM; Kd (HLA-B*15:01 [5]): ≥ 20000 nM; Kd (HLA-A*11:01): ≥ 20000 nM; Kd (HLA-A*03:01 [6]): ≥ 20000 nM; Kd (HLA-A*01:01): ≥ 20000 nM; Kd (HLA-A*69:01): ≥ 20000 nM; Kd (HLA-A*26:01 [7]): ≥ 20000 nM; Kd (HLA-B*58:01): ≥ 20000 nM; Kd (HLA-A*31:01): ≥ 20000 nM; Kd (HLA-B*27:05): ≥ 20000 nM; Kd (HLA-B*39:01): ≥ 20000 nM
SEYKGPVTDV	1000	795	22.9	≥ 70500	37.2	17100	–
STFVSAARQG	8590	394	535	8680	2010	237	–
VLIEVNPPF	–	–	–	–	–	–	Kd (HLA-B*46:01): ≥ 20000 nM
YENAFLPFT	6120	857	36.4	112	93.6	1650	–
YEQVVMDYL	0.609	298	30.2	349	3780	371	–
YIYDTAFKY	–	–	–	–	–	–	Kd (HLA-B*15:01 [8]): 173 nM; Kd (HLA-A*03:01 [9]): 3830 nM; Kd (HLA-A*26:01 [10]): 264 nM
